The values below come from US20230192845A1 (BLINK BIOMEDICAL, published 2023).

The IC50 is the concentration that inhibits the measured activity by half. Higher therefore signals a need for much substance. A word on the EC50: it is the midpoint of the concentration-response curve. A higher EC50 goes with a need for much substance.

Sequences and labels used below:
B1: BL006-19-21G1-21K1 (antibody, V domains shown)
VH: QVQLQQPGAELVKPGASVKMSCKASGYTFISYWITWVKQRPGQGLEWIGDIYPGSGHTNYNEKFKSKATLTVDTSSSTAYMQLSSLTSEDSAVYYCARPTVEAMDYWGQGTSVTVSS
VL: QIVLTQSPAIMSASPGEKVTMTCSASSSVNYMHWYQQRSGTSPKRWIYDTSKLASGVPARFSGSGSGTSYSLTISSMEAEDAATYYCQQWSNNPLTFGAGTKLELK
notes: Recombinant mIgG2a/kappa (also made as mIgG2a-D265A); also called candidate NO 13
B2: BL006-19-55G10-55K7 (antibody, V domains shown)
VH: QVQLQQSGAEVVRPGTSVKMSCKAAGYTFTDNWIDWVKQRPGHGLDWIGNIFPGGNYTNYNEKFKGKATLTADTSSSTAYMQLINLTSEDSAIYYCVRAVADSQFAYWGQGTLVTVSA
VL: QIVLTQSPAIMSVSPGEKVTMTCSASSRVTYMYWYQQKPGSSPKPWIYRTSNLASGVPVRFSGSGSGTSYSLTISSMEAEDAATYYCQQWSSNPLTFGAGTKLELK
notes: Recombinant mIgG2a/kappa (also made as mIgG2a-D265A); also called candidate NO 15
B3: BL006-4-61G5-61K1 (antibody, V domains shown)
VH: EVKLEESGGGLVQPGGSMKLSCVASGFTFSNYWMNWVRQSPEKGLEWVAQIRFKSDNYATHYAESVKGRFTISRDDSKSSVYLQMHNLRAEDTGIYYCTEFAYWGQGTLVTVSA
VL: QILLTQSPAIMSASPGEKVTMTCSASSRVNSRFLNWYQQKSGVSPKLWIYGTSNLASGVPARFSGSGSGTSYSLTISSVEAEDVATYYCQQYQSDPPITFGAGTRLELI
notes: Recombinant mIgG2a/kappa (also made as mIgG2a-D265A); also called BL006-4-61G5-61K1 #7; candidate NO 3
B4: BL006-11-5G1-5K3 (antibody, V domains shown)
VH: EVQLVESGGGLVKPGGSLKLSCAASGFTFSSYAMSWVRQTPEKRLEWVAAINTDGASTYFPATVKDRFTISRDNAKNTLYLQMSSLRSEDTALYYCARPLEPGSWFAYWGQGTLVTVSA
VL: DVLMTQTPLSLPVSLGDQASISCRSSQSIVHSNGNTYLEWYLQKPGQSPKVLIYKVSNRFSGVPDRISGSGSGTDFTLKISRVEAGDLGVYYCFQGSHVPYTFGGGTKLEIK
notes: Recombinant mIgG2a/kappa (also made as mIgG2a-D265A); also called BL006-11-5G1-5K3 #5; candidate NO 5
B5: BL006-19-183G3-183K4 (antibody, V domains shown)
VH: QVTLNESGPGILQPSQTLSLTCSFSGFSLTTYGMGVGWIRQPSGKSLEWLANIWWTEDKYYNSALKSRLTISTDTSHNQVFLKISSVDTEDTATYYCAQMGPEVYSAMDYWGQGTSVTVSS
VL: DIVMTPSQKFMSTTVGDRVSITCKASQNVGTAVAWYQQKPGHSPKLLIYSASNRNTGVPDRFTGSGSGTDFTLTISNMQSEDLADYFCHQYSRYPWTFGGGTKLEIK
notes: Recombinant mIgG2a/kappa (also made as mIgG2a-D265A); also called BL006-19-183G3-183K4 #3; candidate NO 8
B6: BL006-9-1G1-1K1 (antibody, V domains shown)
VH: EVKLVESGGGLVKPGGSLKLSCAASGFTFSSYAMSWVRQTPERGLEWVAAIQSNGGSTFYPDTVKDRFTISRDNAKNTLYLQMSSLRSEDTALYYCVRGPFDYWGQGTTLTVSS
VL: QIVLTQSPAIMSASPGQKVTIPCSASSSVNYIHWFQQKLGSSPKLWIYDTSKLTPGVPARFSGSGSGTSYSLTISSMEAEDAASYFCHQWRSYPPTFGGGTKLEIK
notes: Recombinant mIgG2a/kappa (also made as mIgG2a-D265A); also called candidate NO 11

The first test deals with T1, rhesus CD96 transiently expressed on CHO cells (rhesus, UniProt P40200 22-585 (human entry)).
T1 construct: also called rhesus CD96, short isoform
T1 chain: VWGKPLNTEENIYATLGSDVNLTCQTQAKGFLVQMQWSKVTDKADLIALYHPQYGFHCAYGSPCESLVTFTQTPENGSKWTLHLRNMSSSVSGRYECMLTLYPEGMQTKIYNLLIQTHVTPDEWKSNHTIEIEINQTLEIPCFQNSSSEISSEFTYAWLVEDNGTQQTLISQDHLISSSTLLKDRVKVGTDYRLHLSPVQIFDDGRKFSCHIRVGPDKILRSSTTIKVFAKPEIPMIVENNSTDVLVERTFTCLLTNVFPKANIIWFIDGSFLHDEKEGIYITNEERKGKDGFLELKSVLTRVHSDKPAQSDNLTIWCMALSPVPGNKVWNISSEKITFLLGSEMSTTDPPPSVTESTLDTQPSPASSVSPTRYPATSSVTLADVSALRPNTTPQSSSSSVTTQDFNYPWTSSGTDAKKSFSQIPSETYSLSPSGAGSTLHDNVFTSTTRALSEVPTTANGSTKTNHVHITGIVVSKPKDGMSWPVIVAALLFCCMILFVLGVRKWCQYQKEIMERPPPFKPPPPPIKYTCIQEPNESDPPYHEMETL
As to the kind of experiment: flow cytometry on CHO cells transiently expressing rhesus CD96; antibody at 1 (thin line) and 10 µg/ml (thick dashed line), filled grey = isotype control. As to the method: FIG. 7: Binding profiles of anti-CD96 antibodies on CHO cells transfected with rhesus CD96. Anti-CD96 antibodies or the corresponding isotype control mAbs were tested for their capacity to recognize rhesus CD96 transiently expressed on CHO cells by flow cytometry. Each histogram represents the overlay of the fluorescence intensity obtained for each antibody tested at 1 (black line) and 10 μg/ml (thick dashed black line) and compared to the fluorescence obtained with an isotypic control (filled grey histogram).
(§1) The capacity of the identified mouse anti-human CD96 antibodies to recognize the CD96 protein from other species was further analyzed by flow cytometry by using CHO cells expressing the mouse or the rhesus CD96. The expression of the species-specific CD96 on CHO cell surface was confirmed by using staining with appropriate anti-CD96 antibodies and flow cytometry on non-fixed cells. The rat anti-mCD96 antibody clone #630612 (R&D Systems) and the candidate BL006-9-1 (positive by ELISA on rhesus CD96) were used to confirm the expression of rhesus CD96, while the clone 6A6 (rat IgG2a, e-Bioscience) was used to verify the expression of mouse CD96.
(§2) Mouse anti-CD96 antibodies and isotype control antibodies were incubated at 10 or 1 μg/mL with CHO cells expressing different CD96 species at +4° C. for 30 minutes.
Background: In flow cytometry, cells or beads pass a laser one at a time.
For B1, the binding result was “binds”.
As to B2, the binding result is recorded as “binds”.
For B3, the binding result is recorded as “binds”.
On to B4, for which the binding result is given as “no binding (tested: 10 µg/ml)”.
For B5, the binding result is “no binding (tested: 10 µg/ml)”.
For the molecule B6, the binding result is listed as “binds”.

A further test concerns the target T2, human CD96 short isoform v2 expressed on CHO cells (human, UniProt P40200 22-585).
T2 construct: also called hCD96v2; CD96v2; not shown: C-terminal HA-tag
T2 sequence: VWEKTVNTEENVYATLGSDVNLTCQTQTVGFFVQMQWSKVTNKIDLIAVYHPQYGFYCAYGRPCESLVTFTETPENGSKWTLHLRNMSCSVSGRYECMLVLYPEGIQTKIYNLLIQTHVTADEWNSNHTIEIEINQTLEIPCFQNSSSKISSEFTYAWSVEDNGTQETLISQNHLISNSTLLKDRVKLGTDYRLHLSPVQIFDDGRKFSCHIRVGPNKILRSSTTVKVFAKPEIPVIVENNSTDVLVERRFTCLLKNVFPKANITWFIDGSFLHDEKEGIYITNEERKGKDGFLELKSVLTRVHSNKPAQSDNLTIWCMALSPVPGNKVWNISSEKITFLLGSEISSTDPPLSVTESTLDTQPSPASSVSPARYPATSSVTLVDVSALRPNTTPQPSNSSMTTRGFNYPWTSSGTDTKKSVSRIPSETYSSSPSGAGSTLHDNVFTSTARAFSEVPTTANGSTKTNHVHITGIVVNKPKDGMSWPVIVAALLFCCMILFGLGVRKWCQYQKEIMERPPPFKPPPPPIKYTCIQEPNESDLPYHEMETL
As to the kind of experiment: FCM, inhibition of hCD155-Fc binding to hCD96v2-CHO cells. On the procedure: All candidates except BL006-2-19 that bound very weakly on hCD96v2 by FCM were tested for their capacity to inhibit the binding of human CD155 to hCD96v2 stably expressed on CHO cells. Human CD96-transfected CHO cells (3×10⁵ cells/well of 96-well plate) were incubated at +4° C. for 30 minutes with serial dilutions of anti-CD96 antibodies or isotype control antibody (in mIgG2a or mIgG2aD265A format) in the presence of 4 μg/mL of biotinylated hCD155-Fc (produced and biotinylated at BliNK).
% inhibition=(1−(MFI_wAb&CD155−MFI_CHO)/(MFI_wCD155−MFI_CHO))×100, where MFI_wAb&CD155 is the Mean Intensity Fluorescence (MFI) obtained with the hCD96-CHO cells incubated with the tested antibody and hCD155-hFc; MFI_CHO is the MFI obtained in the absence of hCD155 and mAbs; and MFI_wCD155 is the fluorescence with hCD155 but without pre-incubation with antibody (0% CD155 binding inhibition). The % of inhibition was plotted against antibody concentration and the IC50 values were calculated by using a nonlinear regression analysis model of the GraphPad Prism software.
Turning to B1, the half-inhibitory concentration (IC50) was 19.4 nM and the “Maximal Inhibition Capacity (%)” value turned out to be 100%.
As to B2, the IC50 came to 8.84 nM and the “Maximal Inhibition Capacity (%)” value worked out at 98.3%.
In the case of B3, the “Maximal Inhibition Capacity (%)” value was less than 5%.
Regarding B4, the “Maximal Inhibition Capacity (%)” value is less than 5%.
For the molecule B5, the IC50 came out at 15 nM and the “Maximal Inhibition Capacity (%)” value was found to be 100%.
Consider B6, for which the “Maximal Inhibition Capacity (%)” value is less than 5%.

The target of another test is T2, human CD96 short isoform v2 expressed …. Nature of the test: FCM on hCD96v2-CHO cells. As to the method: FIG. 6: Binding profiles of anti-hCD96 antibodies on human CD96-transfected CHO cells (hCD96v2, short isoform). CHO cells expressing hCD96v2 were incubated with serial dilution of the indicated mIgG1 or mIgG2a anti-CD96 or isotype control antibodies. […] The results are expressed as the difference of mean fluorescence intensity (delta MFI) between cells stained with antibodies and cells without antibodies. Dose response curves were obtained from GraphPad prism software using a non-linear regression fit with a variable slope model (4 parameters). To simplify the reading, results from the various anti-hCD96 candidates are shown on 4 different panels.
The capacity of the identified mouse anti-CD96 antibodies to recognize the cell membrane expressed human CD96 was further analyzed by flow cytometry (FCM) by using CHO cells stably transfected with the CD96 short isoform v2 (CD96v2; Genbank accession number NM_005816, flanked in C-terminus with HA-tag) (SEQ ID NO: 268).
Mouse anti-CD96 antibodies and isotype control antibodies were incubated at various concentrations from 10 μg/mL to 4.6 ng/mL with CHO cells expressing human CD96 at +4° C. for 30 minutes. […] The differences between the mean fluorescence intensity (MFI) obtained for each of the antibody concentration and the intensity obtained in absence of primary antibody (delta-MFI), were calculated and plotted against the concentrations of antibodies.
B1: the EC50 stood at 6.53 nM and the “Maximum binding (delta MFI)” value came to 599000 delta MFI.
For B2, in that order: 3.3 nM and 636000 delta MFI.
For B3, in that order: 2.05 nM and 330000 delta MFI.
Regarding B4, a half-maximal effect (EC50) was put at 12.8 nM and the “Maximum binding (delta MFI)” value came out at 373000 delta MFI.
Regarding B5, a half-maximal response (EC50) required 4.56 nM and the “Maximum binding (delta MFI)” value is 681000 delta MFI.
B6: the EC50 came to 17.5 nM and the “Maximum binding (delta MFI)” value is 514000 delta MFI.

The target in another test is T3, mouse CD96 expressed on CHO cells (mouse, UniProt Q3U0X8 22-602).
T3 construct: whole, on cells; also called mCD96
T3 sequence (looked up): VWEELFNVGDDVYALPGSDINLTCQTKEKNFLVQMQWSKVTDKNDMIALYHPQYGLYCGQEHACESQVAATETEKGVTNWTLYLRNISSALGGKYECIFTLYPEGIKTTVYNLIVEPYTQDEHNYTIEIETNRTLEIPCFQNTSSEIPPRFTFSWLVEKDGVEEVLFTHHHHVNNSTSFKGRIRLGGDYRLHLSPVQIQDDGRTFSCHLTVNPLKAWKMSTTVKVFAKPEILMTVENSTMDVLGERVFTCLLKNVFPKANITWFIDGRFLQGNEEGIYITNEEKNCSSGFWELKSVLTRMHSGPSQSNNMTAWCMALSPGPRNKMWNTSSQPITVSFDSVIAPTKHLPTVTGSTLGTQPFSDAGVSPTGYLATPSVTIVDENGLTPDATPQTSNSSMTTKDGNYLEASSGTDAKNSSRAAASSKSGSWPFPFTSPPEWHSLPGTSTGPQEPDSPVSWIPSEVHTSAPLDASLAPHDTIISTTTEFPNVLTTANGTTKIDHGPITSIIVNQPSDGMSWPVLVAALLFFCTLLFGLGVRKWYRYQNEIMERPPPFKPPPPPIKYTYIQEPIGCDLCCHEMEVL
As to the kind of experiment: FCM on CHO cells expressing mouse CD96.
Excerpt: as §1, §2
Take B1: the binding result was “no binding (tested: 1 and 10 µg/mL)”.
On to B2, for which the binding result is “no binding (tested: 1 and 10 µg/mL)”.
Consider B3, for which the binding result is “no binding (tested: 1 and 10 µg/mL)”.
With B4, the binding result is “no binding (tested: 1 and 10 µg/mL)”.
On the same count and under the same terms, for B5 the value was “no binding (tested: 1 and 10 µg/mL)”; for B6, “no binding (tested: 1 and 10 µg/mL)”.
